Results on three molecules are retold here after patent publication US20050013808A1, “Nitroreductase enzymes” (priority 2001, published 2005).

The test system of series [1] is UT5600 cells (NTR−) lysogens. Description: Survival curve (colony count) IC50 of CB1954 in NTR-expressing lysogens. It is filed as cell-based, E. coli. To be noted: concentration of CB1954 giving 50% reduction in colony number after 36h growth; lysogen expressing the named NTR. Here is the method: To quantify the improvement in NTR activity in the clones in a less subjective way, a few clones were selected for further study by determining their survival curves. The lysogens were grown overnight in LB +kanamycin and diluted to approximately 1 cell per μl based on the OD. In duplicate, 100 μl diluted cells were plated into Tris-buffered LB plates containing kanamycin, IPTG and 0-400 μM CB1954. After 36h growth the number of colonies on each plate were counted and expressed as a percentage of the number present on the plates with no CB1954. Survival curves showing % survival versus concentration of CB 1954 were plotted (see examples in FIG. 7) and the IC50 determined as the concentration of CB 1954 which kills gives a 50% reduction in colony number (Table 3 and FIG. 8). A few clones containing mutations resulting in an enhanced sensitivity to CB 1954 were selected for further study.

The test system of series [2] is UT5600 cells (NTR−) lysogens. Description: Replica-plate screening of mutant NTR-expressing lysogens on increasing CB1954 (growth score). The series is classed as cell-based, E. coli. Also noted: key to Score: 0: Good growth on all concentrations of CB 1954 = vector; Good growth on 100 and 200, faint on 300, ring of growth on 400 μM; Good growth on 100 and 200, ring growth on 300, none or very faint on 400 μM; Good growth on 100, faint to good on 200, none or very faint on 300 and 400 μM; 4: Good growth on 100 μM, none to ring growth on 200 μM = wild type; Good growth on 50 μM, ring on 100 μM, none on 200, 300 or 400 μM; 6: Faint growth on 50 μM, ring on 100 μM; 7: Good growth on 50 μM, none on 100 μM; 8: Ring growth on 50 μM, none on 100 μM; 9: None or very faint growth on 50 μM, none on 100 μM; 10: None or ring growth on 35 μM. Particulars: for Score: growth of lysogens on agar with kanamycin, IPTG and 0-400 μM CB1954, wild type = 4, higher = more sensitive. How it is done:
The ligation mix was packaged (Stratagene) into lambda bacteriophage particles that were used to infect UT5600 cells (NTR ^−). As a control wild type NTR was also cloned into this vector (JG16C2). Kanamycin resistant lysogens were selected on agar plates ([…] kanamycin) then individually grown overnight in a well of a 96-well plate in LB+Kanamycin. The clones were replica plated on to a series of plates containing Tris-buffered (50 mM, pH 7.5) LB agar with kanamycin, IPTG (0.1 mM) and CB1954 at a concentration of 0, 25, 35, 50, 100, 200, 300 or 400 μM (see FIG. 3). […]

The test system of series [3] is HeLa cells. Description: CB1954 sensitisation of HeLa cells after adenoviral NTR expression (MTS viability). The series is classed as cell-based, human. To be noted: range of MOIs, 0-50 μM CB1954, 5 hour exposure, MTS assay. Here is the method:
Sensitisation of HeLa cells to CB1954 was assayed using the following protocol. Cells were infected with NTR-expressing viruses in suspension (2 hours) at a range of MOIs prior to plating into microtitre plates (10^4 cells/well). After a 24 hour expression period, CB1954 was applied at a range of concentrations (0-50 μM) and after a 5 hour exposure to the prodrug, cell viability was assessed using the Promega MTS cell substrate killing assay (2-3 hour incubation before plate reading at OD450 nm). […] Adenovirus titreing by plaque formation on helper cells is however an error-prone process. To correct for this, experiments were performed with multiple independent titred preparations of each virus.
The titres of these mixes were assumed to be the means of the respective experimentally determined titres. For western blot analysis of NTR expression for normalisation purposes, whole cell extracts were resolved by SDS-PAGE on an 11% separation gel and blotted onto a nitrocellulose membrane. NTR was detected using a sheep anti-NTR serum (1:1000 diluted), donkey anti-sheep IgG labelled with HRP (horseradish peroxidase) and SuperSignal West Pico Chemiluminescence substrate (Pierce), analysed with an Alpha Innotech Imager Model #2.3.1. The relative loading of each well was determined by Coomassie blue staining of the gel post transfer.

Series [4] is described as follows: Steady state kinetics of purified NTR, variable substrate CB1954. The series is classed as biochemical. Here is the method:
(§1) Wild type NTR and selected mutants were purified as described by Lovering et al., 2001. Steady state kinetic studies were carried out by monitoring the disappearance of nitrofurazone ( ? =12,960, Zenno, et al., 1994) and nitrofurantoin ( ? =12,020, McOsker, et al., 1992) at 420 nm or the disappearance of reduced benzoquinone ( ? =18,5000), 2-nitrofuran ( ? =10,250, McOsker, et al., 1992), 2-nitrobenzamide ( ? =9,750, McOsker, et al., 1992) and 4 nitrobenzamide ( ? =9,720, McOsker, et al., 1992) at 300 nm. The formation of the 4 hydroxylamine product of CB1954 reduction was monitored at 420 nm ( ? =7900, Richard Knox, personal communication).
(§2) All reactions were performed in quartz cuvettes with either a 0.1-, 0.5-, or 1-cm pathlength. In all cases the reaction was initiated by the addition of a small amount of cold enzyme solution to the reaction mix. Assays were performed in 10 mM Tris HCL pH 7.0. The temperature of each reaction was maintained at 25° C. by means of a circulating water bath. All substrates examined were dissolved in DMSO, with the final concentration of organic solvent not exceeding 4% (v/v), concentrations>5% (v/v) give definable enzyme inhibition. In all assay the final DMSO concentration was at 4%. All steady state data were collected in an aerobic environment. Kinetic data were collected at concentration ranges extending from 0.1 of Km to the maximum possible concentration permitted by substrate solubility or optical absorbance. In all cases maximum substrate concentrations exceeded 5×Km. All data was analysed using the commercial package Sigma Plot™ and fit with non-linear regression to a rectangular hyperbola of the form: y=ax/b+x

The nature of series [5]: Steady state kinetics of purified NTR, variable substrate NADH. The series is classed as biochemical. Particulars: fixed substrate nitrofurazone. How it is done: as §1, §2
For series [6] the following is noted: nitrofurazone and nitrofurantoin as substrates; cited from earlier work.
The nature of series [7]: Steady state kinetics of purified NTR, variable substrate nitrofurazone. The series is classed as biochemical. To be noted: fixed substrate NADH. How it is done:
as §1, §2

Setting [8] is: variable substrate CB1954, fixed substrate NADH.

Substitutions are numbered along the chain they refer to. In names and notes the source's numbering stands.

B1: F124N (protein)
chain: MDIISVALKRHSTKAFDASKKLTPEQAEQIKTLLQYSPSSTNSQPWHFIVASTEEGKARVAKSAAGNYVFNERKMLDASHVVVFCAKTAMDDVWLKLVVDQEDADGRFATPEAKAANDKGRKFNADMHRKDLHDDAEWMAKQVYLNVGNFLLGVAALGLDAVPIEGFDAAILDAEFGLKEKGYTSLVVVPVGHHSVEDFNATLPKSRLPQNITLTEV
A word on the IC50: it is the midpoint of a concentration-inhibition curve. In the case of B1, inhibition in series [1] was half-maximal at 21 µM (IC50). Further, in series [2], the “nitroreductase activity with CB1954 compared with wild-type” value was “substantially greater activity with CB 1954 than the wild-type” and the Score is reported as 8-10. Besides, the “sensitisation of HeLa cells to CB1954 killing compared with WT NTR” value in series [3] is “more extensive cell killing than that caused by expression of the WT enzyme”.

B2: N71S F124K: NTR double mutant, asparagine 71 to serine combined with phenylalanine 124 to lysine (protein)
chain: B1 chain with N71S, N124K
B2 showed an IC50 in series [1] of 16 µM. In addition, the Score in series [2] amounted to 9. For the same molecule, the “sensitisation of HeLa cells to CB1954 killing compared with WT NTR” value in series [3] is listed as “more extensive cell killing than that caused by expression of the WT enzyme”.

B3: F124H: NTR mutant, phenylalanine 124 to histidine (protein)
chain: B1 chain with N124H
In general, Km refers to the substrate concentration at which the rate is half of its maximum. In general, kcat refers to the maximal rate divided by the concentration of active sites. B3 showed an IC50 in series [1] of 41 µM. The “nitroreductase activity with CB1954 compared with wild-type” value in series [2] is listed as “substantially greater activity with CB 1954 than the wild-type”. Further, the Score in series [2] is recorded as 7-9. Moreover, the “kinetic parameters compared with wild type” value in series [4] (second substrate CB1954, nucleotide NADH) is “significant improvement in kcat/Km for both nucleotide and second substrate”. For the same molecule, the Km amounted to 526 ± 10 µM in series [4] (setting [8]); 3 ± 0.4 µM in series [5] (10 mM Tris HCl pH 7.0, 25° C., 4% DMSO); 104 ± 10 µM in series [7]. Moreover, the results for the kcat in series [4] (setting [8]), in series [5] and in series [7] were 5.93 ± 0.583 s⁻¹, 10.3 ± 0.217 s⁻¹ and 10.7 ± 0.267 s⁻¹, respectively. In addition, the “nitroreductase activity compared with wild-type” value in series [6] is “approximately double the wild-type activity”.
